Measured values as given in PMC4979544 (Structure (London, England : 1993), 2016).
Ends that are not written are not given here.

What was measured:
Assay in all cases: fluorescence polarisation
[1] = target: T1, FRFVQELASKEVC-fluorescein peptide
T1 peptide: FRFVQELASKEVC(fluorescein‑5‑maleimide)

[2] = target: T2, YRFVQELASKEVC-fluorescein peptide
T2 peptide: YRFVQELASKEVC(fluorescein‑5‑maleimide)

[3] = target: T3, WRFVQELASKEVC-fluorescein peptide
T3 peptide: WRFVQELASKEVC(fluorescein‑5‑maleimide)

A. tumefaciens ClpS2 = target: T4, A. tumefaciens ClpS2 (A. tumefaciens, UniProt Q8UD95 1-103, 35S-labeled in the peptide blots only)
T4 sequence (looked up): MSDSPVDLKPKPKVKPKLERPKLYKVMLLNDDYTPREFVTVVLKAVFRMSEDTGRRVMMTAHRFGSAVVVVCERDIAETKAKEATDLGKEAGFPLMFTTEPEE

Binder | ΔΔG against parent ClpS2 [1] [kcal/mol] | ΔΔG against parent ClpS2 [2] [kcal/mol] | ΔΔG against parent ClpS2 [3] [kcal/mol] | Kd (A. tumefaciens ClpS2) [µM]
A. tumefaciens ClpS2 L28A (natural protein) MSDSPVDLKPKPKVKPKLERPKLYKVMALNDDYTPREFVTVVLKAVFRMSEDTGRRVMMTAHRFGSAVVVVCERDIAETKAKEATDLGKEAGFPLMFTTEPEE | 0.91 | -0.26 | 0.3 | –
A. tumefaciens ClpS2 R36M (natural protein) MSDSPVDLKPKPKVKPKLERPKLYKVMLLNDDYTPMEFVTVVLKAVFRMSEDTGRRVMMTAHRFGSAVVVVCERDIAETKAKEATDLGKEAGFPLMFTTEPEE | -0.17 | -0.74 | -0.3 | –
LRFVQELASKEVC(fluorescein‑5‑maleimide) [LRFVQELASKEVC-fluorescein peptide] | – | – | – | > 800
